Usually Km stands for the concentration of substrate that gives half-maximal velocity. In general, kcat refers to the number of substrate molecules converted per active site and unit of time at saturation. As usually defined, the kcat/Km is the second-order rate constant that governs catalysis at low substrate concentration. A word on the stoichiometry N: it is a count of units in the complex or per binding partner.

Substitutions are numbered along the chain they refer to.

Data set [1] concerns the target T1, PfATPPase (Plasmodium falciparum, UniProt Q8IJR9).
T1 construct: gene GMPS
T1 sequence (Q8IJR9 237-555): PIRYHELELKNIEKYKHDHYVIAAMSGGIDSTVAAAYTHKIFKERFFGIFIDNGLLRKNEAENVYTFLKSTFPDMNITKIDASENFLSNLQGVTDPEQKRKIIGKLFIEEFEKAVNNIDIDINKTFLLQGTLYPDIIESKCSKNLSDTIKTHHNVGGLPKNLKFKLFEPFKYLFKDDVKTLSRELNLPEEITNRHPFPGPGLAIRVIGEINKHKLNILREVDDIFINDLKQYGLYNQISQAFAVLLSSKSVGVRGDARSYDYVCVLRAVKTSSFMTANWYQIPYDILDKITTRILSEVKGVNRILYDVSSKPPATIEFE
The experiment in a line: ammonia-dependent GMP formation, absorbance decrease at […] nm. Conditions: NH4Cl-dependent, 20 mM MgCl2, pH 8.5, 25 °C.

Data set [2] has as its system N. The experiment in a line: purified protein. Conditions: 2 mM ATP, 150 μM XMP, 20 mM MgCl2, pH 8.5, 25 °C.
The test system of data set [3] is O=c1[nH]c(=O)c2ncn([C@@H]3O[C@H](COP(=O)(O)O)[C@@H](O)[C@H]3O)c2[nH]1. The experiment in a line: purified protein. Format: biochemical, Plasmodium falciparum. Conditions: 2 mM ATP, 5 mM Gln, 20 mM MgCl2, pH 8.5, 25 °C, Gln-dependent.
Data set [4] concerns the molecule itself. The experiment in a line: SAXS; in solution, 1.1-11 mg/ml in 20 mM Tris pH 7.4, 50 mM NaCl; data at 11 mg/ml analysed; ab initio envelope superimposed on the dimer crystal structure.
Data set [5] deals with the molecule itself. The experiment in a line: SAXS.
Substrate in data set [6]: N
The experiment in a line: purified protein. Conditions: 20 mM MgCl2, pH 8.5, 25 °C.

Substrate in data set [7]: O=c1[nH]c(=O)c2ncn([C@@H]3O[C@H](COP(=O)(O)O)[C@@H](O)[C@H]3O)c2[nH]1
The experiment in a line: purified protein. Conditions: NH4Cl-dependent, 20 mM MgCl2, pH 8.5, 25 °C.

Data set [8] concerns the molecule itself. The experiment in a line: SEC; analytical gel filtration, Superdex 200 HR 10/30, 50 mM Tris-HCl pH 7.4, 100 mM KCl; 100 μl of 20 μM protein, each injected individually. On the technique in general: In gel filtration, larger molecules generally elute earlier.

Consider `Nc1ncnc2c1ncn2[C@@H]1O[C@H](COP(=O)(O)OP(=O)(O)OP(=O)(O)O)[C@@H](O)[C@H]1O` [ATP], for which the Km in data set [1] worked out at 56 ± 16 µM.

For PfGMPS (Plasmodium falciparum 3D7), in data set [2], the Km came to 19000 ± 1000 µM, the kcat stood at 0.917 s⁻¹ and the kcat/Km amounted to 48.3 M⁻¹ s⁻¹. Moreover, in data set [3], the Km came to 10 ± 2 µM, the kcat was 0.733 ± 0.0167 s⁻¹ and the kcat/Km was 73300 M⁻¹ s⁻¹.

B1: Plasmodium falciparum GMP synthetase (PfGMPS), wild type (enzyme, UniProt Q8IJR9 1-555, looked up)
chain: MEGEEYDKILVLNFGSQYFHLIVKRLNNIKIFSETKDYGVELKDIKDMNIKGVILSGGPYSVTEAGSPHLKKEVFEYFLEKKIPIFGICYGMQEIAVQMNGEVKKSKTSEYGCTDVNILRNDNINNITYCRNFGDSSSAMDLYSNYKLMNETCCLFENIKSDITTVWMNHNDEVTKIPENFYLVSSSENCLICSIYNKEYNIYGVQYHPEVYESLDGELMFYNFAYNICKCKKQFDPIRYHELELKNIEKYKHDHYVIAAMSGGIDSTVAAAYTHKIFKERFFGIFIDNGLLRKNEAENVYTFLKSTFPDMNITKIDASENFLSNLQGVTDPEQKRKIIGKLFIEEFEKAVNNIDIDINKTFLLQGTLYPDIIESKCSKNLSDTIKTHHNVGGLPKNLKFKLFEPFKYLFKDDVKTLSRELNLPEEITNRHPFPGPGLAIRVIGEINKHKLNILREVDDIFINDLKQYGLYNQISQAFAVLLSSKSVGVRGDARSYDYVCVLRAVKTSSFMTANWYQIPYDILDKITTRILSEVKGVNRILYDVSSKPPATIEFE
notes: GMP synthetase of Plasmodium falciparum, EC 6.3.5.2, full-length enzyme of 555 residues: GATase domain 1-236 and ATPPase domain 237-555; also called guanosine 5'-monophosphate synthetase; ligand-free PfGMPS; source: E. coli AT2465 (pQE30PfGMPS), purified (HisTrap, Superdex 200 size exclusion)
As for B1, the “stoichiometry N” value in data set [4] was determined as 2.

B2: PfGMPS_C89A (glutamine-bound inactive mutant of P. falciparum GMP synthetase) (enzyme)
chain: B1 chain with C89A
Regarding B2, the “stoichiometry N” value in data set [5] was 2.

B3: PfATPPase (isolated ATP pyrophosphatase domain of PfGMPS) (domain or fragment, Plasmodium falciparum, UniProt Q8IJR9 237-555, looked up)
chain: T1 sequence (Q8IJR9 237-555)
notes: ATPPase domain of Plasmodium falciparum GMP synthetase, residues 237-555; Cloned into pET-21b(+); also called ATPPase domain; source: E. coli BL21(DE3) (pETPfATPPase), purified (60% ammonium sulfate precipitation, CM-Sepharose cation exchange)
For the molecule B3, in data set [6], the Km came out at 7000 ± 300 µM and the catalytic constant (kcat) is 0.155 ± 0.0017 s⁻¹. The Km in data set [7] is 11 ± 4 µM. The “stoichiometry N” value in data set [8] was determined as 2.
